Assay [1] addresses T1, TRCW5 antigen (CD3δε-Fc-Avi) (biotinylated (site not stated)).
T1 construct: also called recombinant CD3
Description: ELISA after heat.

For assay [2], the target named is T2, CD3 on primary human pan T cells (human, UniProt P07766 23-207).
T2 construct: on cells it stands in the TCR/CD3 complex; also called Pan T-cells (CD3-positive); endogenous CD3
Description: flow cytometry, pan T-cells. As for the experimental part: ELISA assays for binding to recombinant CD3 (TRCW5, SEQ ID NO: 39) were performed as above. Cell binding was performed using primary human T cell and Jurkat cells by flow cytometry. Briefly, E. coli expressed anti CD3 ScFv supernatants, either at room temperature, or 55° C., 60° C. or 65° C. heat treated samples.
Pan T-cells (CD3-positive) and Jurkat-CD3-negative cells were prepared by staining Jurkat-CD3-negative cells with CFSE while keeping pan T-cells unstained. Jurkat-CD3-negative cell suspensions were resuspended at 20 million cells per each 50 mL conical tube. Cells were harvested by centrifugation at 400×g for 5 minutes and resuspended in DPBS followed by washing 2× in DPBS. Cells were stained with 1:25,000 dilution for a final dye concentration of 0.02 uM CFSE (2 uL of staining solution to 50 mL of cell suspension). Cells were incubated for 10 minutes at room temperature and centrifuged for 5 minutes at 400×g. After removal of supernatant, 3 mL of HI-FBS were added to the cell pellet, mixed and centrifuged for 5 min at 400×g. Supernatant was removed and cells were resuspended in BD stain buffer at 2×10\hat{ }6 cells/mL and incubated on ice or 4 C protected from light. Human pan T cells were thawed at 37 C and transferred gently into a conical tube containing 15 mL of warm or RT culture media (RPMI+10% FBS). […] Cells were harvested by centrifugation at 400×g for 5 min and resuspended in culture media (RPMI+10% HI-FBS). Pan T-cells (without staining) were prepared at 2×10\hat{ }6 cells/mL in flow staining buffer. Equal volumes of CFSE stained Jurkat-CD3-negative cells and unstained T-cells (CD3-positive) cells were mixed and plated 50 uL/well into assay plates. 50 uL/well neat bacterial supernatant samples and control sample (CD3W36 ScFv) were added to each well and plates were incubated 1 hr at 4 C or. Cells were harvested by centrifugation at 400×g for 4 min and 150 uL staining buffer were added to all wells, followed by centrifugation at 400×g for 4 min to pellet cells. To each well, 150 uL staining buffer were added followed by centrifugation at 400×g for 4 minutes to pellet cells.
Background: Flow cytometry measures light scatter and fluorescence of single cells or particles in a stream.

T2 sequence (P07766 23-207 limits assumed): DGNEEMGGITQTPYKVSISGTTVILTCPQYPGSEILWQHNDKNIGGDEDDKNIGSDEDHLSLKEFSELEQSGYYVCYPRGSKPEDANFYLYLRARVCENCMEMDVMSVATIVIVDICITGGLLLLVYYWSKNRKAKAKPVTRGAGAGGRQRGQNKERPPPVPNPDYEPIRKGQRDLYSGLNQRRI
T1 sequence (chain, as listed by the source mutant limits assumed): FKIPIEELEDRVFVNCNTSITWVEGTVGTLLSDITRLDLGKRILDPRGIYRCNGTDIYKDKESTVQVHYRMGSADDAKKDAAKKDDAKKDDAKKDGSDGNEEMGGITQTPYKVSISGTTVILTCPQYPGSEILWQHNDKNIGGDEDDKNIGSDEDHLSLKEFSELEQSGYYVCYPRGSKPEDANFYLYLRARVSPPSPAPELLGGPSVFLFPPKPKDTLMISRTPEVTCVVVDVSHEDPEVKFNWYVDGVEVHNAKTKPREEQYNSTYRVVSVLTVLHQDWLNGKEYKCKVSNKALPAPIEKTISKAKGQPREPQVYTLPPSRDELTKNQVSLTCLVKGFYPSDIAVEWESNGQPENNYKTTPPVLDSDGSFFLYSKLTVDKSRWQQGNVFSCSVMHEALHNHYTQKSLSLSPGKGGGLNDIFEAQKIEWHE

B1: CD3B2043 (scFv)
scFv: QVQLVQSGAEVKKPGSSVKVSCKASGYTFTRSTMHWVRQAPGQGLEWIGYINPSSAYTNYNQKFQGRVTLTADKSTSTAYMELSSLRSEDTAVYYCASPQVHYDYNGFPYWGQGTLVTVSSGGSEGKSSGSGSESKSTGGSEIVLTQSPATLSASPGERVTLSCSASSSVSYMNWYQQKPGTAPRRLIYDSSKLASGVPARFSGSGSGRDYTLTISSLEPEDFAVYYCQQWSRNPPTFGGGTKVEIK
Take B1: in assay [1], the “% Retained 55° C.” value was determined as 100%, the “% Retained 60° C.” value was 88% and the “% Retained 65° C.” value came to 4%. In addition, in assay [2], the “% Binding retained on T-cells, 55° C.” value turned out to be 0.991 fraction; the “% Binding retained on T-cells, 60° C.” value turned out to be 0.906 fraction; the “% Binding retained on T-cells, 65° C.” value amounted to 0.0805 fraction; the “% Binding retained on T-cells, RT” value turned out to be 1 fraction.

B2: CD3B2071 (scFv)
scFv: QVQLVQSGAEVKKPGSSVKVSCKASGYTFTRSTMHWVRQAPGQGLEWMGYINPSSAYTNYNQKFQGRVTLTADKSTSTAYMELSSLRSEDTAVYYCASPQVHYDYNGFPYWGQGTLVTVSSGGSEGKSSGSGSESKSTGGSEIVLTQSPATLSASPGERVTLSCSASSSVSYMNWYQQKPGTAPRRLIYDSSKLASGVPARFSGSGSGRDYTLTISSLEPEDFAVYYCQQWSRNPPTFGGGTKVEIK
B2: in assay [1], the “% Retained 55° C.” value came to 103%, the “% Retained 60° C.” value came out at 88% and the “% Retained 65° C.” value is 4%. Moreover, in assay [2], the “% Binding retained on T-cells, 55° C.” value is 1.01 fraction; the “% Binding retained on T-cells, 60° C.” value turned out to be 0.899 fraction; the “% Binding retained on T-cells, 65° C.” value was 0.12 fraction; the “% Binding retained on T-cells, RT” value worked out at 1 fraction.

B3: CD3B2063 (scFv)
scFv: QVQLVQSGAEVKKPGSSVKVSCKASGYTFTRSTMHWVKQAPGQGLEWIGYINPSSAYTNYAQKFQGRVTLTADKSTSTAYMELSSLRSEDTAVYYCASPQVHYDYNGFPYWGQGTLVTVSSGGSEGKSSGSGSESKSTGGSEIVLTQSPATLSASPGERVTLSCSASSSVSYMNWYQQKPGTAPRRLIYDSSKLASGVPARFSGSGSGRDYTLTISSLEPEDFAVYYCQQWSRNPPTFGGGTKVEIK
For the molecule B3, in assay [1], the “% Retained 55° C.” value turned out to be 108%, the “% Retained 60° C.” value amounted to 92% and the “% Retained 65° C.” value stood at 11%. In assay [2], the “% Binding retained on T-cells, 55° C.” value stood at 1 fraction; the “% Binding retained on T-cells, 60° C.” value amounted to 0.996 fraction; the “% Binding retained on T-cells, 65° C.” value is 0.185 fraction; the “% Binding retained on T-cells, RT” value turned out to be 1 fraction.

B4: CD3B2058 (scFv)
scFv: QVQLVQSGAEVKKPGSSVKVSCKASGYTFTRSTMHWVKQAPGQGLEWIGYINPSSAYTNYAQKFQGRVTLTADKSTSTAYMELSSLRSEDTAVYYCASPQVHYDYNGFPYWGQGTLVTVSSGGSEGKSSGSGSESKSTGGSEIVLTQSPATLSASPGERVTLSCSASSSVSYMNWYQQKPGTSPRRWIYDSSKLASGVPARFSGSGSGRDYTLTISSLEPEDFAVYYCQQWSRNPPTFGGGTKVEIK
Turning to B4, in assay [1], the “% Retained 55° C.” value stood at 112%, the “% Retained 60° C.” value was determined as 110% and the “% Retained 65° C.” value came out at 20%. Further, in assay [2], the “% Binding retained on T-cells, 55° C.” value stood at 1.05 fraction; the “% Binding retained on T-cells, 60° C.” value came out at 0.808 fraction; the “% Binding retained on T-cells, 65° C.” value is 0.174 fraction; the “% Binding retained on T-cells, RT” value was 1 fraction.

B5: CD3B2069 (scFv)
scFv: QVQLVQSGAEVKKPGSSVKVSCKASGYTFTRSTMHWVRQAPGQGLEWMGYINPSSAYTNYNQKFQGRVTLTADKSTSTAYMELSSLRSEDTAVYYCASPQVHYDYNGFPYWGQGTLVTVSSGGSEGKSSGSGSESKSTGGSEIVLTQSPATLSASPGERVTLSCSASSSVSYMNWYQQKPGTAPRRWIYDSSKLASGVPARFSGSGSGRDYTLTISSLEPEDFAVYYCQQWSRNPPTFGGGTKVEIK
As to B5, in assay [1], the “% Retained 55° C.” value was determined as 114%, the “% Retained 60° C.” value came out at 109% and the “% Retained 65° C.” value was determined as 17%. Further, in assay [2], the “% Binding retained on T-cells, 55° C.” value was 1.08 fraction; the “% Binding retained on T-cells, 60° C.” value was 1.48 fraction; the “% Binding retained on T-cells, 65° C.” value stood at 0.11 fraction; the “% Binding retained on T-cells, RT” value was determined as 1 fraction.

B6: CD3B2045 (scFv)
scFv: QVQLVQSGAEVKKPGSSVKVSCKASGYTFTRSTMHWVRQAPGQGLEWIGYINPSSAYTNYNQKFQGRVTLTADKSTSTAYMELSSLRSEDTAVYYCASPQVHYDYNGFPYWGQGTLVTVSSGGSEGKSSGSGSESKSTGGSEIVLTQSPATLSASPGERVTLSCSASSSVSYMNWYQQKPGQAPRRWIYDSSKLASGVPARFSGSGSGRDYTLTISSLEPEDFAVYYCQQWSRNPPTFGGGTKVEIK
Regarding B6, in assay [1], the “% Retained 55° C.” value was determined as 111%, the “% Retained 60° C.” value stood at 105% and the “% Retained 65° C.” value was found to be 28%. Besides, in assay [2], the “% Binding retained on T-cells, 55° C.” value turned out to be 1.05 fraction; the “% Binding retained on T-cells, 60° C.” value was 0.997 fraction; the “% Binding retained on T-cells, 65° C.” value is 0.296 fraction; the “% Binding retained on T-cells, RT” value came out at 1 fraction.

B7: CD3B2072 (scFv)
scFv: QVQLVQSGAEVKKPGSSVKVSCKASGYTFTRSTMHWVRQAPGQGLEWMGYINPSSAYTNYNQKFQGRVTLTADKSTSTAYMELSSLRSEDTAVYYCASPQVHYDYNGFPYWGQGTLVTVSSGGSEGKSSGSGSESKSTGGSEIVLTQSPATLSASPGERVTLSCSASSSVSYMNWYQQKPGQSPRRWIYDSSKLASGVPARFSGSGSGRDYTLTISSLEPEDFAVYYCQQWSRNPPTFGGGTKVEIK
On to B7, for which, in assay [1], the “% Retained 55° C.” value is 117%, the “% Retained 60° C.” value came out at 111% and the “% Retained 65° C.” value turned out to be 17%. In assay [2], the “% Binding retained on T-cells, 55° C.” value was 0.872 fraction; the “% Binding retained on T-cells, 60° C.” value was found to be 1.27 fraction; the “% Binding retained on T-cells, 65° C.” value came out at 0.0933 fraction; the “% Binding retained on T-cells, RT” value came out at 1 fraction.

B8: CD3B2044 (scFv)
scFv: QVQLVQSGAEVKKPGSSVKVSCKASGYTFTRSTMHWVRQAPGQGLEWIGYINPSSAYTNYNQKFQGRVTLTADKSTSTAYMELSSLRSEDTAVYYCASPQVHYDYNGFPYWGQGTLVTVSSGGSEGKSSGSGSESKSTGGSEIVLTQSPATLSASPGERVTLSCSASSSVSYMNWYQQKPGQSPRRWIYDSSKLASGVPARFSGSGSGRDYTLTISSLEPEDFAVYYCQQWSRNPPTFGGGTKVEIK
With B8, in assay [1], the “% Retained 55° C.” value amounted to 103%, the “% Retained 60° C.” value is 102% and the “% Retained 65° C.” value was found to be 14%. In addition, in assay [2], the “% Binding retained on T-cells, 55° C.” value stood at 0.786 fraction; the “% Binding retained on T-cells, 60° C.” value turned out to be 1.04 fraction; the “% Binding retained on T-cells, 65° C.” value is 0.198 fraction; the “% Binding retained on T-cells, RT” value was 1 fraction.

B9: CD3B2064 (scFv)
scFv: QVQLVQSGAEVKKPGSSVKVSCKASGYTFTRSTMHWVKQAPGQGLEWIGYINPSSAYTNYAQKFQGRVTLTADKSTSTAYMELSSLRSEDTAVYYCASPQVHYDYNGFPYWGQGTLVTVSSGGSEGKSSGSGSESKSTGGSEIVLTQSPATLSASPGERVTLSCSASSSVSYMNWYQQKPGQSPRRWIYDSSKLASGVPARFSGSGSGRDYTLTISSLEPEDFAVYYCQQWSRNPPTFGGGTKVEIK
B9: in assay [1], the “% Retained 55° C.” value was 111%, the “% Retained 60° C.” value is 107% and the “% Retained 65° C.” value came out at 33%. For the same molecule, in assay [2], the “% Binding retained on T-cells, 55° C.” value was found to be 1.17 fraction; the “% Binding retained on T-cells, 60° C.” value worked out at 0.741 fraction; the “% Binding retained on T-cells, 65° C.” value came out at 0.241 fraction; the “% Binding retained on T-cells, RT” value stood at 1 fraction.

B10: CD3B2065 (scFv)
scFv: QVQLVQSGAEVKKPGSSVKVSCKASGYTFTRSTMHWVKQAPGQGLEWIGYINPSSAYTNYAQKFQGRVTLTADKSTSTAYMELSSLRSEDTAVYYCASPQVHYDYNGFPYWGQGTLVTVSSGGSEGKSSGSGSESKSTGGSEIVLTQSPATLSASPGERVTLSCSASSSVSYMNWYQQKPGQAPRRWIYDSSKLASGVPARFSGSGSGRDYTLTISSLEPEDFAVYYCQQWSRNPPTFGGGTKVEIK
In the case of B10, in assay [1], the “% Retained 55° C.” value was 115%, the “% Retained 60° C.” value came to 112% and the “% Retained 65° C.” value came to 48%. For the same molecule, in assay [2], the “% Binding retained on T-cells, 55° C.” value came to 1.14 fraction; the “% Binding retained on T-cells, 60° C.” value stood at 1.33 fraction; the “% Binding retained on T-cells, 65° C.” value turned out to be 0.156 fraction; the “% Binding retained on T-cells, RT” value stood at 1 fraction.
